The values below come from patent US20110311556A1 (LFB BIOTECHNOLOGIES, published 2011).

For test [1], the target named is T1, Rhesus D antigen (RhD) on Rhesus D positive red blood cells group O R1R1 (human, UniProt Q02161 2-417).
T1 construct: whole, on cells
T1 sequence (looked up): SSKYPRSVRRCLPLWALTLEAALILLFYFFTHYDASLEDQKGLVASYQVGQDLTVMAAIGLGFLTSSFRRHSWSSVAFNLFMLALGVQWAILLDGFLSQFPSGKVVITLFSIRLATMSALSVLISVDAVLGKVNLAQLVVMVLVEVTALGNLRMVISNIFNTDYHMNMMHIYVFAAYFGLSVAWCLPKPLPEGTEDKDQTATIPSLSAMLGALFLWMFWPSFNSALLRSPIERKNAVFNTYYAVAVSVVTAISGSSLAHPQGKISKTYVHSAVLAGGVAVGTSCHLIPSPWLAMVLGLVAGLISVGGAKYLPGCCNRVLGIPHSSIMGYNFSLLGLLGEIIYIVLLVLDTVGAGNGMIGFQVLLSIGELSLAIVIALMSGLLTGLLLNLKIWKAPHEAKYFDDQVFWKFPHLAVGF
The test is described as follows: cytometric determination of anti-D specific activity on red blood cells.

Another test deals with CD16 (FcγRIII receptor) (UniProt P08637 17-254, limits assumed). The test is described as follows: cell-based or functional assay.
CD16 (FcγRIII receptor), sequence (P08637 17-254 limits assumed): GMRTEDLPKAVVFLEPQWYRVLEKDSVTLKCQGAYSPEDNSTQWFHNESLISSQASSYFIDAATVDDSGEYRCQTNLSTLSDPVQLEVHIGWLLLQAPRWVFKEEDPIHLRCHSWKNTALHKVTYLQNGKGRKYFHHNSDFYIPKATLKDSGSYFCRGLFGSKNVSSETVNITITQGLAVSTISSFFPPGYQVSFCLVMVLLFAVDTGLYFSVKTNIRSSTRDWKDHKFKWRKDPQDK

B1: non-mutant (C68) anti-D antibody (sequence of the R297 antibody of clone T125 A2) (antibody, human IgG1, kappa)
heavy: not shown
light: AIRMTQSPSSFSASTGDRVTITCRASQDIRNYVAWYQQKSGKAPKFLIYAASTLQSGVPSRFSGSGSGTDFTLTINSLQSEDFATYYCQQYYNSPPTFGQGTRVEITRTVAAPSVFIFPPSDEQLKSGTASVVCLLNNFYPREAKVQWKVDNALQSGNSQESVTEQDSKDSTYSLSSTLTLSKADYEKHKVYACEVTHQGLSSPVTKSFNRGEC
notes: IgG1 tetramer; also called non-mutant (C68) antibody; T125 anti-D antibody
B1: in test [1], the binding result was “binds”. Further, the “ADCC activity: EC50 (antibody concentration producing 50% of maximum activity)” value with CD16 (FcγRIII receptor) worked out at 20 ng/mL.

B2: R593 antibody (mutant (F68) anti-D antibody) (antibody, human IgG1, kappa)
heavy: not shown
light: B1 light
notes: Tetrameric IgG1 with kappa light chain, two heavy and two light chains; Phenylalanine at heavy chain position 68 (67 by Kabat); Produced in the YB2/0 line; also called mutant (F68) antibody; mutant F68 antibody
For the molecule B2, in test [1], the binding result is reported as “binds”. Besides, the “ADCC activity: EC50 (antibody concentration producing 50% of maximum activity)” value in the test with CD16 (FcγRIII receptor) turned out to be 21 ng/mL.
